Assay results reported in US5814603A, “Compounds with PTH activity” (Affymax Technologies N.V., priority 1993, dated 1998).
Ends that are not written are not given here.

How the values were obtained:
full length PTH-R = molecular target: T1, full length PTH-R (Didelphis virginiana, UniProt P25107); conditions: native opossom kidney cells; Juppner et al. (1991); cited from earlier work
T1 construct: host or cells: native opossum kidney cells

[1] = Isoelectric focusing (IEF) of the purified peptide; assay type: physicochemical; conditions: HPLC-purified peptide after CNBr cleavage
Procedure: The precipitated PTH polymer was then dissolved in 70% formic acid, and a 500-fold (100 to 1000-fold excess can be used) molar excess of CNBr was added. […] After CNBr cleavage, the peptides were lyophilized and resuspended in distilled water. The peptide was purified resuspended in Buffer A (0.1% TFA) and further purified by HPLC using a VYDAC C-18 Hamilton semi-preparative column. Approximately 30 mg of peptide was injected onto the column. The peptide was then eluted with a gradient of 20-40% acetonitrile/0.1% TFA over 40 minutes. The major peak, eluting at approximately 15 minutes, was collected and lyophilized to dryness. Analysis of this peptide by SDS-PAGE and IEF indicated a single species of approximately 4000 daltons with an isoelectric point of approximately 8.7.

PTH receptor = molecular target: T2, PTH receptor (Rattus norvegicus, UniProt P25961); assay: PTH analog activity assay: intracellular cAMP concentration in UMR106 cells; assay type: cell-based; conditions: rat osteosarcoma cell line UMR106, cAMP by scintillation proximity assay, 1 mM IBMX, 5 minutes at room temperature
T2 construct: host or cells: UMR106 rat osteosarcoma cells
T2 sequence (P25961 27-591): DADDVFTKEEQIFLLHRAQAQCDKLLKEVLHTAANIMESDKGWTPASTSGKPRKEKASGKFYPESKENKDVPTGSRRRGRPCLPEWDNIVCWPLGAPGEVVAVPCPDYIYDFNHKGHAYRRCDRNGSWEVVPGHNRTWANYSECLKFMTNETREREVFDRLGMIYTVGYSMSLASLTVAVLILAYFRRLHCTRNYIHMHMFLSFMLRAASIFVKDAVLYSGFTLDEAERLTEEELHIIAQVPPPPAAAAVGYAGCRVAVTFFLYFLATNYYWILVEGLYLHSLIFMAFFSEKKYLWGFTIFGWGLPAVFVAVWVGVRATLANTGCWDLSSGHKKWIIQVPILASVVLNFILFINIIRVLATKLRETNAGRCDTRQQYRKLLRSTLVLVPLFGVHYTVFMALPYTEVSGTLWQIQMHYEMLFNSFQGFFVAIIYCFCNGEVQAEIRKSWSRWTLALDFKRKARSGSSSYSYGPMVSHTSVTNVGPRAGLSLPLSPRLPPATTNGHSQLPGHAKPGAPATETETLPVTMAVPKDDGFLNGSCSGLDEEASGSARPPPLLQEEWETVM
Procedure: PTH concentrations were determined by OD280 using an extinction coefficient of 6600 for the recombinant peptide and 5500 for the synthetic peptide. The rat osteosarcoma cell line UMR106 (ATCC CRL 1661) was used for in vitro testing of the peptide's ability to activate the PTH receptor. Activation of the PTH receptor leads to an intracellular rise in cAMP concentration.
The UMR106 cells were plated at 1.2×10^5 per well in a 48 well dish. The media (DMEM with fetal calf serum) was removed, and 1 mL of fresh media was applied. PTH (recombinant or synthetic) at various concentrations and 3-isobutyl-1-methyl xanthine (IBMX) at 1 mM final concentration were then added to each well of the plate, which was then incubated for 5 minutes at room temperature. The media was then removed and the cells quickly washed with PBS. The cells were then extracted three times with 1 mL of absolute ethanol. The three extractions were combined and the ethanol removed by evaporation in a "speed vac" centrifuge. The extract was then redissolved in 0.5 mL of buffer (0.05M NaAcetate, pH=5.8, and 0.01% azide). The cAMP concentration was determined by scintillation proximity assay using a kit available from Amersham.

T1 sequence (P25107 27-585): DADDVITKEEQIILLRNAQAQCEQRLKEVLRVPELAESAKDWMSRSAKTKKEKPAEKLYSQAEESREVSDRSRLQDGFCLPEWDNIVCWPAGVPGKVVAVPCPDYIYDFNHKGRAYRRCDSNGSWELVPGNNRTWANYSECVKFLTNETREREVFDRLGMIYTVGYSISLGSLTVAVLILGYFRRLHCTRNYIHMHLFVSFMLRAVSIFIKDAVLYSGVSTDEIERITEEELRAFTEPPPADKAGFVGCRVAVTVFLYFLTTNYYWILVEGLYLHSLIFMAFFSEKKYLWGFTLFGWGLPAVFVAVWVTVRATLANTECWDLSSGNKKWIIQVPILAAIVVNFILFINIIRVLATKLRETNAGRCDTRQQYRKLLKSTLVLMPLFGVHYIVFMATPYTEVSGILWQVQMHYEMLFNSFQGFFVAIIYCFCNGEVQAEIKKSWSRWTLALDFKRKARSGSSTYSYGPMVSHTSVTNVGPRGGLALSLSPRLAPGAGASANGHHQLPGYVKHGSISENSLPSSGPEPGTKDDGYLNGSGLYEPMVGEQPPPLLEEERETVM

| activity relative to synthetic human PTH (more active) (PTH receptor) | Substance | Kd (full length PTH-R) [nM] | isoelectric point [1] |
| --- | --- | --- | --- |
|  | PTH (1-34): PTH ligand bound by the native full length PTH receptor, per Juppner et al. 1991 | ~0.5 |  |
| 2-to-10 fold | recombinant PTH analog: 35 amino acid Ho/Hol PTH analog (SEQ ID NO:4/5) from CNBr cleavage of 8-mer fusion protein expressed from pBAD/PTH/OC in E. coli (SVSEIQLLHNLGKHLNSLERVEWLRKKLQDVHNYX; X: randomised place (mixture); also: X35: homoserine or homoserine lactone (mixture)) |  | approximately 8.7 |
